The target of this assay is TSH receptor (solubilized porcine thyroid membrane) (porcine (endogenous in thyroid membrane)) (UniProt Q8SPP9). The assay can be described thus: radioligand binding.

1 substance from publication PMC4532127 can be followed below.

Chain of UniProt Q8SPP9 (Q8SPP9 22-764): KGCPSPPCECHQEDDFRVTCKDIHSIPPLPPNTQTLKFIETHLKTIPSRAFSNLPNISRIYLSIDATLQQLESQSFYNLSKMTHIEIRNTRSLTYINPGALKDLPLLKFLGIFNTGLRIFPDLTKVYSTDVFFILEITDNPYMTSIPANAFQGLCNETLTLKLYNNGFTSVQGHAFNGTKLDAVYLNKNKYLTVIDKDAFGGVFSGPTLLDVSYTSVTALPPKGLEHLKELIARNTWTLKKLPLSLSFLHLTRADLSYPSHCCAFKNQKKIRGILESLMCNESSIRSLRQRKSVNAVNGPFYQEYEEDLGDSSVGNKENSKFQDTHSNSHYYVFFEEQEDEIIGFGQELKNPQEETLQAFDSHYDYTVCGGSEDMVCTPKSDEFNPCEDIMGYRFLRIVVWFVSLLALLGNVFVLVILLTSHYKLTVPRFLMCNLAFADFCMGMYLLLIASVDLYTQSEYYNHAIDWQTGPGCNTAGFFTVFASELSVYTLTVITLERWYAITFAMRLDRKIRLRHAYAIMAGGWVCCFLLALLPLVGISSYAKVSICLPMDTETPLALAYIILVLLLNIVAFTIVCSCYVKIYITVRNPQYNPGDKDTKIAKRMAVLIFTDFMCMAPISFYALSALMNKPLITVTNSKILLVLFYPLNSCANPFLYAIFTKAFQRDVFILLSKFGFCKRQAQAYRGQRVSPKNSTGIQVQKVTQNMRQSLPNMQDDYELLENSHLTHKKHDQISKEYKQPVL

As to “125I-labelled bTSH (bovine thyroid-stimulating hormone) (from UniProt P01217 25-120; P01223 21-132) (ligand)”, the cpm of bound 125I-bTSH (TSH receptor present, heat-treated normal pooled IgG) amounted to 6950 cpm; the cpm of bound 125I-bTSH (TSH receptor present, normal pooled IgG) was determined as 7810 cpm; the cpm of bound 125I-bTSH, T B (Bo) worked out at 7000 cpm.
